Values quoted from earlier work, collected in PMC2913173.

Target: Bcl-2 (Homo sapiens) (UniProt P10415)
Assay: fluorescence polarization

Bcl-2 (Homo sapiens), sequence (P10415 whole entry): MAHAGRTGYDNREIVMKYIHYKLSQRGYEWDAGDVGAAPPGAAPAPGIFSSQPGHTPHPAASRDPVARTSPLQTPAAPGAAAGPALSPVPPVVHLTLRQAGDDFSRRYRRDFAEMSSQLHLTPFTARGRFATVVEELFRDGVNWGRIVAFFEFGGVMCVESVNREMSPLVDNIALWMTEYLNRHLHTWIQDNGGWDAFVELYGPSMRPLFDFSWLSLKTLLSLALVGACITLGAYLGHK

Bak 72-87 (from UniProt Q16611)
Kd: 1.6 µM
